Several values for one entry are separate records, joined by “and”; a condition that tells them apart may be missing. Equal values may be shown once.
What was measured:
[1] = biological target: MBP-Vpu fusion protein (His8 tag, maltose binding protein, 11-residue linker, full-length HIV-1 Vpu with Q36C) (HIV-1); assay: SEC
[2] = biological target: MBP-Vpu fusion protein (His8 tag, maltose binding protein, 11-residue linker, full-length HIV-1 Vpu with Q36C) (HIV-1); assay: SEC; remark: listed apart in the source
[3] = biological target: MBP-Vpu fusion protein (His8 tag, maltose binding protein, 11-residue linker, full-length HIV-1 Vpu with Q36C) (HIV-1); assay: negative staining electron microscopy
[4] = biological target: MBP-Vpu fusion protein (His8 tag, maltose binding protein, 11-residue linker, full-length HIV-1 Vpu with Q36C) (HIV-1); assay: SDS-PAGE and western blot
[5] = biological target: MBP-Vpu fusion protein (His8 tag, maltose binding protein, 11-residue linker, full-length HIV-1 Vpu with Q36C) (HIV-1); assay: SEC; remark: listed apart in the source

MBP-Vpu fusion protein (His8 tag, maltose binding protein, 11-residue linker, full-length HIV-1 Vpu with Q36C)
stoichiometry N [1]: 5 and 4 | stoichiometry N [2]: 5 and 4 | stoichiometry N [3]: 5 | stoichiometry N [4]: 2 and 5 | stoichiometry N [5]: 5

— article doi:10.1101/2022.08.26.505453
